From article PMC3082519, “Molecular Determinants and Genetic Modifiers of Aggregation and Toxicity for the ALS Disease Protein FUS/TLS” come the findings set out here.

The target in the series is GST-FUS (Homo sapiens, UniProt P35637 1-526). The series can be described thus: EMSA; 0.15-5 uM GST-FUS; yeast tRNA 25 ng, heparin added after binding; 10 mM Tris pH 7.5, 75 mM KCl, 4 mM MgCl2, 25 mM phosphocreatine, 1.25 mM ATP, 1.3% polyvinyl alcohol, 25 ng yeast tRNA, 0.8 mg BSA, 1 mM DTT, RNasin, 0.1 mM EDTA, 10% glycerol; 10 ul, 20 min at 30 C; then heparin 0.5 ug/ml; 4.5% native gel. To be noted: protein: recombinant; tags: N-terminal GST, TEV-cleavable (GST-TEV-FUS); label: 32P-UTP; single strand.
GST-FUS, sequence (P35637 whole entry): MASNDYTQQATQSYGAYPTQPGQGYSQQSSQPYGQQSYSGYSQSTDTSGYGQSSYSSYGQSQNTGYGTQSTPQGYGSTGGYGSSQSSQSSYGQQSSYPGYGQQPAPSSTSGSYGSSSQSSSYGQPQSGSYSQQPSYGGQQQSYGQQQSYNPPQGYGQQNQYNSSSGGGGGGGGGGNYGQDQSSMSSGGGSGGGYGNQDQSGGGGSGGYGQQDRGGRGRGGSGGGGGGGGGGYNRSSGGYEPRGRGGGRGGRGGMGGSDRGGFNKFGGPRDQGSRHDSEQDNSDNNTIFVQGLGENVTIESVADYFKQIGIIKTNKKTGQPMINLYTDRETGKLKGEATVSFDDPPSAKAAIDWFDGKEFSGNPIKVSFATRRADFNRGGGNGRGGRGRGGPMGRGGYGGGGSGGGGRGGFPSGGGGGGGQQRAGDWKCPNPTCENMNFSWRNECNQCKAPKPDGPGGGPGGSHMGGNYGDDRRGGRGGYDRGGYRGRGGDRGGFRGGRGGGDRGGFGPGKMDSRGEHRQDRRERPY

With GGGGAAAAUUAAUGUGUGUGUGUGGAAAAUU (ssRNA) [FUS RNA probe (GU-repeat)], the binding result was “binds”.
